Here are results for 10 molecules from patent US20140287419A1, “Compositions Having Dicamba Decarboxylase Activity and Methods of Use” (priority 2013, published 2014).

Data set [1] is described as follows: 14C assay with IPTG-induced recombinant E. coli cells (14CO2 capture from [14C]-carboxyl-labeled dicamba). The following applies: dicamba decarboxylation activity of the protein of the given SEQ ID NO.
A short description of data set [2]: Dicamba decarboxylation activity of computationally designed protein variants. To be noted: for Percent Activity Improvement Over Parent (%): parent SEQ ID NO:1 or SEQ ID NO:41 listed as 100.
Setting [3] is: Table 4, variants designed to introduce activity.
Setting [4] is: Table 5, designed variants with improved activity.

B1: 120 (protein)
chain: MAIIDCHGHYTTTPKGVETYRNAQKAAVAKDPSFKYEKGQVVVSDDEIRESIENNQLKMQRERGTDLTIFSPRSTAGGHHIGNEYTSQFWTEHQNDLIRRVCDLFPKNFAPVAQLPQSPGVDPAKSVPEIVRTVEQMGFIGINLNPDPSGGYWKDTSLADRAFYPIYEKMVEYDIPAMIHPRNACNDCFHTTGSHALGADTTGFQQLIMSDVFKDFPSLKIIIPHGGGAVPYHWGRFRGLMQDQGYAPLEESALKNIYFDTCVYHQRGIDLLLDIVPTQNILFASEMIGAVRGIDAETGHNFDDTKRYIDNNTALNAEEKAMIFEGNARRVFSRLKTD
modifications: Dicamba decarboxylase variant clone DC.12.002
For B1, the “Enzymatic Detection level” value in data set [1] is “High”. Moreover, the “Dicamba Decarboxylation activity” value in data set [2] (setting [3]) is listed as “Yes”.

B2: 122 (protein)
chain: MAIIDCHGHYTTTPKGVEDYRNAQKAAVAKDPSFKGEKGQVVVSDDEIRESIENNQLKMQRERGTDLTIFSPRSTAGGHHIGNEYTSQFWTEHQNDLIRRVCDLFPKNFAPVAQLPQSPGVDPAKSVPEIVRTVEQMGFIGINLNPDPSGGYWKDTSLADRAFYPIYEKMVEYDIPAMIHPRNACNDCFHTTGSHALGADTTGFQQLIMSDVFKDFPSLKIIIPHGGGAVPYHWGRFRGLMQDQGYAPLEESALKNIYFDTCVYHQRGIDLLLDIVPTQNILFASDMIGAVRGIDPETGHNFDDTKRYIDNNTALNAEEKAMIFEGNARRVFSRLKTD
modifications: Dicamba decarboxylase variant clone DC.12.103
Turning to B2, in data set [1], the “Enzymatic Detection level” value was “High”. Besides, the “Dicamba Decarboxylation activity” value in data set [2] (setting [3]) is listed as “Yes”.

B3: 121 (protein)
chain: MAIIDCHGHYTTTPKGVEDYRNAQKAAVAKDPSFKGEKGQVVVSDDEIRESIENNQLKMQRERGTDLTIFSPRWDAGGHHIGNEYTSQFWTEHQNDLIRRVCDLFPKNFAPVAQLPQSPGVDPAKSVPEIVRTVEQMGFIGINLNPDPSGGYWKDTSLADRAFYPIYEKMVEYDIPAMIHPRLACNACFHTGLSVGLGADTTGFQQLIMSDVFKDFPSLKIIIPHGGGAVPYHWGRFRGLMQDQGYAPLEESALKNIYFDTCVYHQRGIDLLLDIVPTQNILFASEMIGAVRGIDPETGHNFDDTKRYIDNNTALNAEEKAMIFEGNARRVFSRLKTD
modifications: Dicamba decarboxylase variant clone DC.12.014
Turning to B3, the “Enzymatic Detection level” value in data set [1] was “High”. Besides, the “Dicamba Decarboxylation activity” value in data set [2] (setting [3]) is recorded as “Yes”.

B4: 111 (protein)
chain: MAQGKVALEEHFAIPETLQDSMGFVPGDYWKELMHRLLDIQDTRLKLMDAHGIETMILSLNAPAVQAIPDRRKAIEIARRANDVLAEECAKRPDRFLAFAALPLQDPDAATEELQRCVNDLGFVGALVNGFSQEGDGQTPLYYDLPQYRPFWGEVEKLDVPFYLHPRNPLPQDSRIYDGHPWLLGPTWAFAQETAVHALRLMASGLFDEHPRLNIILGHMGEGLPYMMWRIDHRMAWIKLPPRYPAKRRFMDYFNENFHITTSGNFRTQTLIDAILEIGADRILFSTDWPFENIDHASDWFNATSIAEADRVKIGRTNARRLFKLDGA
modifications: Dicamba decarboxylase variant clone DC.4.112
Regarding B4, the “Enzymatic Detection level” value in data set [1] is reported as “High”. Besides, the “Dicamba Decarboxylation activity” value in data set [2] (setting [4]) is “Yes”. Further, the “Percent Activity Improvement Over Parent (%)” value in data set [2] amounted to 237%.

B5: 114 (protein)
chain: MAQGKVALEEHFAIPETLQDSAGAVPGDYWKELQHRLLDIQDTRLKLMDAHGIETMILSLNAPAVQAIPDRRKAIEIARRANDVLAEECAKRPDRFLAFAALPLQDPDAATEELQRCVNDLGFVGALVNGFSQEGDGQTPLYYDLPQYRPFWGEVEKLDVPFYLHPRNPLPQDSRIYDGHPWLLGPTWAFAQETAVHALRLMASGLFDEHPRLNIILGHMGEGLPYMMWRIDHRVAWVKLPPRYPAKRRFMDYFNENFHITTSGNFRTQTLIDAILEIGADRILFSTDWPFENIDHASDWFNATSIAEADRVKIGRTNARRLFKLDGA
modifications: Dicamba decarboxylase variant clone DC.4.116
On to B5, for which, in data set [1], the “Enzymatic Detection level” value is given as “High”. Also, the “Dicamba Decarboxylation activity” value in data set [2] (setting [4]) is “Yes”. Further, the “Percent Activity Improvement Over Parent (%)” value in data set [2] came to 221%.

B6: 112 (protein)
chain: MAQGKVALEEHFAIPETLQDSAGFVPGDYWKELVHRLLDIQDTRLKLMDAHGIETMILSLNAPAVQAIPDRRKAIEIARRANDVLAEECAKRPDRFLAFAALPLQDPDAATEELQRCVNDLGFVGALVNGFSQEGDGQTPLYYDLPQYRPFWGEVEKLDVPFYLHPRNPLPQDSRIYDGHPWLLGPTWAFAQETAVHALRLMASGLFDEHPRLNIILGHMGEGLPYMMWRIDHRVAWVKLPPRYPAKRRFMDYFNENFHITTSGNFRTQTLIDAILEIGADRILFSTDWPFENIDHASDWFNATSIAEADRVKIGRTNARRLFKLDGA
modifications: Dicamba decarboxylase variant clone DC.4.113
As for B6, the “Enzymatic Detection level” value in data set [1] is “High”. Moreover, the “Dicamba Decarboxylation activity” value in data set [2] (setting [4]) is “Yes”. In addition, in data set [2], the “Percent Activity Improvement Over Parent (%)” value was 219%.

B7: 113 (protein)
chain: MAQGKVALEEHFAIPETLQDSAGFVPGDYLKELFHRLLDIQDTRLKLMDAHGIETMILSLNAPAVQAIPDRRKAIEIARRANDVLAEECAKRPDRFLAFAALPLQDPDAATEELQRCVNDLGFVGALVNGFSQEGDGQTPLYYDLPQYRPFWGEVEKLDVPFYLHPRNPLPQDSRIYDGHPWLLGPTWAFAQETAVHALRLMASGLFDEHPRLNIILGHMGEGLPYMMWRIDHRVAWVKLPPRYPAKRRFMDYFNENFHITTSGNFRTQTLIDAILEIGADRILFSTDWPFENIDHASDWFNATSIAEADRVKIGRTNARRLFKLDGA
modifications: Dicamba decarboxylase variant clone DC.4.114
As for B7, the “Enzymatic Detection level” value in data set [1] was “High”. In addition, the “Dicamba Decarboxylation activity” value in data set [2] (setting [4]) is given as “Yes”. In addition, the “Percent Activity Improvement Over Parent (%)” value in data set [2] is reported as 224%.

B8: 110 (protein)
chain: MAQGKVALEEHFAIPETLQDSMGFVPGDYWKELMHRLLDIQDTRLKLMDAHGIETMILSLNAPAVQAIPDRRKAIEIARRANDVLAEECAKRPDRFLAFAALPLQDPDAATEELQRCVNDLGFVGALVNGFSQEGDGQTPLYYDLPQYRPFWGEVEKLDVPFYLHPRNPLPQDSRIYDGHPWLLGPTWAFAQETAVHALRLMASGLFDEHPRLNIILGHMGEGLPYMMWRIDHRMAWVKLPPRYPAKRRFMDYFNENFHITTSGNFRTQTLIDAILEIGADRILFSTDWPFENIDHASDWFNATSIAEADRVKIGRTNARRLFKLDGA
modifications: Dicamba decarboxylase variant clone DC.4.111
On to B8, for which the “Enzymatic Detection level” value in data set [1] is on record as “High”. Further, in data set [2] (setting [4]), the “Dicamba Decarboxylation activity” value is reported as “Yes”. The “Percent Activity Improvement Over Parent (%)” value in data set [2] was 277%.

B9: 115 (protein)
chain: MAQGKVALEEHFAIPDTLTTYTTSGDYEKELKHRLLDIQDTRLKLMDAHGIETMILSLNAPGVQAIPDRRKAIEIARRANDVLAEECAKRPDRFLAFAALPLQDPDAATEELQRCVNDLGFVGALVNGFSQEGDGQTPLYYDLPQYRPFWGEVEKLDVPFYLHPRNPLPQDSRIYDGHPWLLGPTWAFAQETAVHALRLMASGLFDEHPRLNIILGHMGEGLPYMMWRIDHRNAWVKTPPRYPAKRRFMDYFNENFHITTSGNFRTQTLIDAILEIGADRILFSTDWPFENIDHASDWFNATSIAEADRVKIGRTNARRLFKLDGA
modifications: Dicamba decarboxylase variant clone DC.4.161
B9: the “Enzymatic Detection level” value in data set [1] is given as “High”. The “Dicamba Decarboxylation activity” value in data set [2] (setting [4]) is reported as “Yes”. Also, the “Percent Activity Improvement Over Parent (%)” value in data set [2] is 202%.

B10: 116 (protein)
chain: MAQGKVALEEHFAIPETLQDAAGFVPGDYWKELQHRLLDIQDRRVRLMDEHGIETMILSLNAPAVQAIADSTRANETARRANDFLAEQVAKQPTRFRGFAALPMQDPELAARELERCVKELGFVGALVNGFSQDNRSAVPLYYDMAQYWPFWETVQALDVPFYLHPRNPLPSDARIYDGHAWLLGPTWAFGQETAVHALRLMGSGLFDKYPALKIILGHMGEGLPYSMWRIDHRNAWIKTTPKYPAKRKIVDYFNENFYLTTSGNFRTQTLIDAILEIGADRILFSTDWPFENIDHAADWFENTSISEADRKKIGWGNAQNLFKLNR
modifications: Dicamba decarboxylase variant clone DC.30.007
With B10, the “Enzymatic Detection level” value in data set [1] is given as “High”. In addition, the “Dicamba Decarboxylation activity” value in data set [2] (setting [4]) is listed as “Yes”. For the same molecule, the “Percent Activity Improvement Over Parent (%)” value in data set [2] came to 220%.
